In publication PMC12393501, “Recruitment of Mre11 to recombination sites during meiosis” (Research Square, 2025):

B1: HisSUMO-tagged Mer2 [S. cerevisiae] / MBP-tagged Mre11-C49 peptide [S. cerevisiae] (parent)
chain 1: SYGLLNGRKTKTKTRPAASTKTASRRGKGRASRTPKTDILGSLLAKKRK
chain 2: MVARGRTDEISTDVSEANSEHSLMITETSSPFRSIFSHSGKVANAGALEESDKQILEWAGKLELESMELRENSDKLIKVLNENSKTLCKSLNKFNQLLEQDAATNGNVKTLIKDLASQIENQLDKVSTAMLSKGDEKKTKSDSSYRQVLVEEISRYNSKITRHVTNKQHETEKSMRCTQEMLFNVGSQLEDVHKVLLSLSKDMHSLQTRQTALEMAFREKADHAYDRPDVSLNGTTLLHDMDEAHDKQRKKSVPPPRMMVTRSMKRRRSSSPTLSTSQNHNSEDNDDASHRLKRAARTIIPWEELRPDTLESEL

Variants of: B1
Experiment: co-expression Ni-NTA pulldown, anti-MBP immunoblot quantification
Conditions: with MBP-tagged Mre11-C49 peptide [S. cerevisiae]; co-expressed in E. coli; at least seven independent samples; parent: 1; read off a plot

ratio to parent	Variant
0.27	chain 2 MVARGRTDEISTDVSEANSEHSLMITETSSPFRSIFSHSGKVANAGALEASDKAILAWAGALELESMELRENSDKLIKVLNENSKTLCKSLNKFNQLLEQDAATNGNVKTLIKDLASQIENQLDKVSTAMLSKGDEKKTKSDSSYRQVLVEEISRYNSKITRHVTNKQHETEKSMRCTQEMLFNVGSQLEDVHKVLLSLSKDMHSLQTRQTALEMAFREKADHAYDRPDVSLNGTTLLHDMDEAHDKQRKKSVPPPRMMVTRSMKRRRSSSPTLSTSQNHNSEDNDDASHRLKRAARTIIPWEELRPDTLESEL [chain 2 E50A Q54A E57A K61A]
